Experimental data from publication PMC9331583.

Target: apolipoprotein E (human (endogenous in Huh7.5 and HMC3)) (UniProt P02649)
Sequence of UniProt P02649 (P02649 19-317): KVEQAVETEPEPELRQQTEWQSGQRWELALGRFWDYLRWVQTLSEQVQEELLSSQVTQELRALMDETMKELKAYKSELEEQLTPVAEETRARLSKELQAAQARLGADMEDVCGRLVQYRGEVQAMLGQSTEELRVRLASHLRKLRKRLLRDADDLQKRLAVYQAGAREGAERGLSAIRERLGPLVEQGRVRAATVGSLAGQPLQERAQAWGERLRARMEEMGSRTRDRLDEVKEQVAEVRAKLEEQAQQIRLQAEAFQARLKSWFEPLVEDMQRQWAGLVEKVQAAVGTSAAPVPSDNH

## Zika envelope glycoprotein (natural protein)
  decrease in infection of Huh7.5 cells (percent of cells positive for ZIKV envelope by FACS, relative to isotype Abs) by ZIKV particles pre-incubated with goat anti-ApoE Abs at 1.5 and 10 μg/mL: 60%
